Holding throughout (assay): ITC; ligand (peptide or CAR-1 fragment, 0.5 mM) injected into CGH-1_(248-420) or mutant (0.05 mM) in the cell; 20 °C; Buffer B (20 mM Tris-HCl pH 7.5, 150 mM NaCl); one-binding-site model
Holding throughout (settings): both partners purified

For one experiment, the target named is T1, CGH-1_(248–420) H269A (C. elegans, UniProt Q95YF3 248-420, H269A).
T1 construct: Mutant of m1 made with the MutanBEST kit; source: E. coli Gold (DE3), purified (Ni-chelating resin, SEC Superdex 75)
T1 sequence (looked up): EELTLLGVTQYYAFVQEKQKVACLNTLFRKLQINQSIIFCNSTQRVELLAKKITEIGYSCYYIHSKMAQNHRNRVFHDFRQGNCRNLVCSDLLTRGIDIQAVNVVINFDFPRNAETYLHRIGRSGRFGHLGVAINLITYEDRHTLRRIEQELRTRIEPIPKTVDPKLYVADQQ

Another experiment deals with T2, CGH-1_(248–420) Y386A (C. elegans, UniProt Q95YF3 248-420, Y386A).
T2 construct: Mutant of m1 made with the MutanBEST kit; source: E. coli Gold (DE3), purified (Ni-chelating resin, SEC Superdex 75)
T2 sequence (looked up): T1 sequence (looked up) with A22H, Y139A

The next experiment addresses T3, CGH-1_(248–420) K277E (C. elegans, UniProt Q95YF3 248-420, K277E).
T3 construct: Mutant of m1 made with the MutanBEST kit; source: E. coli Gold (DE3), purified (Ni-chelating resin, SEC Superdex 75)
T3 sequence (looked up): T1 sequence (looked up) with A22H, K30E

For a further experiment, the target named is T4, CGH-1_(248–420) Q266A (C. elegans, UniProt Q95YF3 248-420, Q266A).
T4 construct: Mutant of m1 made with the MutanBEST kit; source: E. coli Gold (DE3), purified (Ni-chelating resin, SEC Superdex 75)
T4 sequence (looked up): T1 sequence (looked up) with Q19A, A22H

Positions count from the first letter of the chain named.

B1: PATR-1 peptide (CePATR-1_(30–67)) (peptide)
peptide: SDEDHNIFDDEFDAANDETFGGGLDNIGENAELENYAT
notes: PATR-1 (Pat1 ortholog), C. elegans, residues 30-67; Printed with free NH2 and COOH ends; also called PATR1_30-67^WT; CePATR-1 peptide; source: synthetic peptide (GL Biochem, Shanghai)
For orientation: Kd means the equilibrium constant for the complex coming apart. A high value points to a looser complex. As a reminder, the stoichiometry N is the number of molecules, sites or subunits per partner or assembly. Consider B1, for which the Kd in the experiment with CGH-1_(248–420) H269A was 2670 ± 440 nM; in the experiment with CGH-1_(248–420) Y386A, 4.19 ± 0.58 µM; with CGH-1_(248–420) K277E, 8.29 ± 0.99 µM; with CGH-1_(248–420) Q266A, 2970 ± 290 nM. The dH with CGH-1_(248–420) H269A is -15.4 ± 0.67 kcal/mol; in the experiment with CGH-1_(248–420) Y386A it was -14.2 ± 0.56 kcal/mol; with CGH-1_(248–420) K277E it was -19.6 ± 0.95 kcal/mol; with CGH-1_(248–420) Q266A, -16.6 ± 0.41 kcal/mol. In addition, the “stoichiometry N” value with CGH-1_(248–420) H269A came to 0.94; with CGH-1_(248–420) Y386A, 0.85; with CGH-1_(248–420) K277E it was 1.07; with CGH-1_(248–420) Q266A, 0.86.
